Experiments:
Conditions in all cases: both partners purified
[1] = target: T1, terbium-labeled core RNA polymerase (E. coli, UniProt P0A7Z4 1-329; P0A8V2 1-1342; P0A8T7 1-1407; P0A800 1-91, CS124-DTPA-Phe-NCS-Tb-chelate on randomly labeled lysine residues of core RNAP, 1:1 ratio of Tb-chelate to molecule of core; which subunit is not told | CS124-DTPA-Phe-NCS-Tb-chelate on randomly …); experiment: FRET or BRET; LRET saturation binding, homogeneous; fluorescein-sigma serially diluted, 10 nM Tb-core; TG (50 mM Tris-HCl pH 7.9, 5% glycerol) + 250 mM NaCl; 1 h at 22°C; [core]0 set at 5 nM in the fit
T1 construct: E. coli RNA polymerase α subunit; E. coli RNA polymerase β subunit; E. coli RNA polymerase β' subunit; E. coli RNA polymerase ω subunit; also called Tb-core; Tb-core RNAP; copies: 2 + 1 + 1 + 1

[2] = target: T1, terbium-labeled core RNA polymerase; experiment: FRET or BRET; LRET saturation binding, homogeneous; fluorescein-sigma serially diluted, 10 nM Tb-core; TG (50 mM Tris-HCl pH 7.9, 5% glycerol) + 100 mM KGlu; 1 h at 22°C; [core]0 set at 5 nM in the fit
[3] = target: T1, terbium-labeled core RNA polymerase; experiment: FRET or BRET; LRET saturation binding, homogeneous; fluorescein-sigma serially diluted, 10 nM Tb-core; TG (50 mM Tris-HCl pH 7.9, 5% glycerol) + 250 mM KGlu; 1 h at 22°C; [core]0 set at 5 nM in the fit
[4] = target: T1, terbium-labeled core RNA polymerase; experiment: FRET or BRET; LRET saturation binding, homogeneous; fluorescein-sigma serially diluted, 10 nM Tb-core; TG (50 mM Tris-HCl pH 7.9, 5% glycerol) + 100 mM NaCl; 1 h at 22°C; [core]0 set at 5 nM in the fit
[5] = target: T1, terbium-labeled core RNA polymerase; experiment: FRET or BRET; LRET saturation binding, homogeneous; fluorescein-sigma serially diluted, 10 nM Tb-core; TG (50 mM Tris-HCl pH 7.9, 5% glycerol) + 500 mM NaCl; 1 h at 22°C; [core]0 set at 5 nM in the fit
[6] = target: T1, terbium-labeled core RNA polymerase; experiment: FRET or BRET; LRET saturation binding, homogeneous; fluorescein-sigma serially diluted, 10 nM Tb-core; TG (50 mM Tris-HCl pH 7.9, 5% glycerol) + 500 mM KGlu; 1 h at 22°C; [core]0 set at 5 nM in the fit

T1 sequence (P0A7Z4 whole entry, chain 1 of 4): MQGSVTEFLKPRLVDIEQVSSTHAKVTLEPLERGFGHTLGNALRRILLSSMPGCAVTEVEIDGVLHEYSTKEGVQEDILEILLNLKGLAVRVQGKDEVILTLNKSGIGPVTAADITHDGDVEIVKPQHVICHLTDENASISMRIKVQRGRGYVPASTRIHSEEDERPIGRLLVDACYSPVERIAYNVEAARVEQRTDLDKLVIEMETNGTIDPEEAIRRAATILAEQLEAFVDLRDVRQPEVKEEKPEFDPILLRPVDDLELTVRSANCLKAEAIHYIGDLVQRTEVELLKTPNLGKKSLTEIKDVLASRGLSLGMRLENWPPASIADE
T1 sequence (P0A8V2 whole entry, chain 2 of 4): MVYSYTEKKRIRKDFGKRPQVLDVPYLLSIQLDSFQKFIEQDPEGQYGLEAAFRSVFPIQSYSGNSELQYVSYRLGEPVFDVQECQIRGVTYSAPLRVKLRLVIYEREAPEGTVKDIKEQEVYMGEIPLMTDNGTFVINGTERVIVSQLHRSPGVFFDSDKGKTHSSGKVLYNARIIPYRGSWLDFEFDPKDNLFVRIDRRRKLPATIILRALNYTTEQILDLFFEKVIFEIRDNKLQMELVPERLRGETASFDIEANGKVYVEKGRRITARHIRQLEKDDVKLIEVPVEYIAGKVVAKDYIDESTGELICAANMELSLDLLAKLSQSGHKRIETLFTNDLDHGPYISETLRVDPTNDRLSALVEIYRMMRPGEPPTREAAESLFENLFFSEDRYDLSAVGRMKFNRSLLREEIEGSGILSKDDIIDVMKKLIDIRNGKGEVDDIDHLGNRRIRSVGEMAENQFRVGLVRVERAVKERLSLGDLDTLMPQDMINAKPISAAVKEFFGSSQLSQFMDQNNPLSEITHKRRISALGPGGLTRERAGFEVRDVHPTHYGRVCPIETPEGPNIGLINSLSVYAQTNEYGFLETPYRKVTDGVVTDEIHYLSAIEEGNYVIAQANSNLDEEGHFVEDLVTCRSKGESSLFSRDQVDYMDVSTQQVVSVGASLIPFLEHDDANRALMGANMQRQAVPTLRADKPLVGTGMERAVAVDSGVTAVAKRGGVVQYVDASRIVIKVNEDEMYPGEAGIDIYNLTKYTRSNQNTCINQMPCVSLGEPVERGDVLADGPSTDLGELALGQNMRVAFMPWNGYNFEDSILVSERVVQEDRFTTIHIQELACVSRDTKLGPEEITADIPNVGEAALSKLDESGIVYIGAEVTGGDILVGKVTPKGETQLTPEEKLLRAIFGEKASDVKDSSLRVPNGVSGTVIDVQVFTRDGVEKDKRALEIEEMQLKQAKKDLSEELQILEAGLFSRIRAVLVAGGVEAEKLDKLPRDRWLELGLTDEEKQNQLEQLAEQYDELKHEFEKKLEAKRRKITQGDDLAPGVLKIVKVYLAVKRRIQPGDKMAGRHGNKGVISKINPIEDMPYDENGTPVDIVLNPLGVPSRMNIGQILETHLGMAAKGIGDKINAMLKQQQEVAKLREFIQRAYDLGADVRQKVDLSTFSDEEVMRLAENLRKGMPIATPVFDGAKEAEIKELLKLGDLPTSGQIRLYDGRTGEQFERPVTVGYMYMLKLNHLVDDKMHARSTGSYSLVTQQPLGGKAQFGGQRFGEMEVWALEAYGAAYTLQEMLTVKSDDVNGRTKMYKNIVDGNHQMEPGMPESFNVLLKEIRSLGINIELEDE
T1 sequence (P0A8T7 whole entry, chain 3 of 4): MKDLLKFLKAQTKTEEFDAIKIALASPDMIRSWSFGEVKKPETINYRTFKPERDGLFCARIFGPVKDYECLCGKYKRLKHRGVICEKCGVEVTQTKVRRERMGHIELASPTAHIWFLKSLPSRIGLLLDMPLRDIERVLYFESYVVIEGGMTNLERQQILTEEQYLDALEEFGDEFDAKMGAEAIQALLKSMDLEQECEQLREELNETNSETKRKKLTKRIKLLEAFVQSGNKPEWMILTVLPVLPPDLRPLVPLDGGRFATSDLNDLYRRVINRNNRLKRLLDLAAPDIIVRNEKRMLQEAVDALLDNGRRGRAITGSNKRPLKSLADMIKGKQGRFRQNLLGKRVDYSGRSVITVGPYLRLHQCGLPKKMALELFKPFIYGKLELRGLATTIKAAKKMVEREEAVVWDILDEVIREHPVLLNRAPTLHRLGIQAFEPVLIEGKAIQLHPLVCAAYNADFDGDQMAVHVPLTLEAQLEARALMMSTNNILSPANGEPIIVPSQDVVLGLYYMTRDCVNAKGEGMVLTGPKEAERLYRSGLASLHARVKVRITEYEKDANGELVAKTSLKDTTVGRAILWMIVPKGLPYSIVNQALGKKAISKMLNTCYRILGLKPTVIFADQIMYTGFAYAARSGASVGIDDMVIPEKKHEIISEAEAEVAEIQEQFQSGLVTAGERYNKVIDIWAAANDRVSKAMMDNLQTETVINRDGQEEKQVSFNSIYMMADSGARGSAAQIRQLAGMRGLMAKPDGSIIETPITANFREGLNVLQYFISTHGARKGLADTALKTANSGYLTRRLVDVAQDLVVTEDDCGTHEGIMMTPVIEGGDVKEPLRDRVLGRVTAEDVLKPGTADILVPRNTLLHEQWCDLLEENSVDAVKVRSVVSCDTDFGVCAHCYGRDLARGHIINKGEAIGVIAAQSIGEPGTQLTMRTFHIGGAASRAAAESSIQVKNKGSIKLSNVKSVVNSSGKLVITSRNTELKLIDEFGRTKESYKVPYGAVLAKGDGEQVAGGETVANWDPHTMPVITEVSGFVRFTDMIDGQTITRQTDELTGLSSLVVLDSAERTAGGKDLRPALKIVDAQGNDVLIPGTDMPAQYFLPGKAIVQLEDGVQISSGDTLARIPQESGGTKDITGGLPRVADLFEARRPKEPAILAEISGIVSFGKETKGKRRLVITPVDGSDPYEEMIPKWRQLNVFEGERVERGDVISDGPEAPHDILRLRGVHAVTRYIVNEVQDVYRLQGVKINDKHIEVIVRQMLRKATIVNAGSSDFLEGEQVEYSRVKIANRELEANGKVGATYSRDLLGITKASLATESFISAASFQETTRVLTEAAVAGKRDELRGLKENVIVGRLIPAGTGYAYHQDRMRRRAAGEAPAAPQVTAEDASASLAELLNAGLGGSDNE
T1 sequence (P0A800 whole entry, chain 4 of 4): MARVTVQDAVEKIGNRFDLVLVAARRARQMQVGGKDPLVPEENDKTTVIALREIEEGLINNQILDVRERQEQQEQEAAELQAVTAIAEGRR

B1: fluorescein-σ32 (natural protein, E. coli, UniProt P0AGB3 1-284, looked up)
chain: MTDKMQSLALAPVGNLDSYIRAANAWPMLSADEERALAEKLHYHGDLEAAKTLILSHLRFVVHIARNYAGYGLPQADLIQEGNIGLMKAVRRFNPEVGVRLVSFAVHWIKAEIHEYVLRNWRIVKVATTKAQRKLFFNLRKTKQRLGWFNQDEVEMVARELGVTSKDVREMESRMAAQDMTFDLSSDDDSDSQPMAPVLYLQDKSSNFADGIEDDNWEEQAANRLTDAMQGLDERSQDIIRARWLDEDNKSTLQELADRYGVSAERVRQLEKNAMKKLRAAIEA
modifications: fluorescein on randomly labeled lysine residues, 2:1 ratio of fluorescein to molecule of protein
notes: E. coli heat shock sigma factor σ32 (RpoH); also called F-σ32; RpoH
Kd [1]: 0.6 nM | Kd [2]: 0.3 nM | Kd [3]: 1.3 nM | Kd [4]: 0.8 nM | Kd [5]: 2.4 nM | Kd [6]: 2 nM

Reference: PMC2715106 (PLoS ONE, 2009)
